# In IntAct's records for PubMed 31515488:
# Molecular target: klhl2_human KLHL2 (UniProt O95198)
# Sequence (O95198 whole entry): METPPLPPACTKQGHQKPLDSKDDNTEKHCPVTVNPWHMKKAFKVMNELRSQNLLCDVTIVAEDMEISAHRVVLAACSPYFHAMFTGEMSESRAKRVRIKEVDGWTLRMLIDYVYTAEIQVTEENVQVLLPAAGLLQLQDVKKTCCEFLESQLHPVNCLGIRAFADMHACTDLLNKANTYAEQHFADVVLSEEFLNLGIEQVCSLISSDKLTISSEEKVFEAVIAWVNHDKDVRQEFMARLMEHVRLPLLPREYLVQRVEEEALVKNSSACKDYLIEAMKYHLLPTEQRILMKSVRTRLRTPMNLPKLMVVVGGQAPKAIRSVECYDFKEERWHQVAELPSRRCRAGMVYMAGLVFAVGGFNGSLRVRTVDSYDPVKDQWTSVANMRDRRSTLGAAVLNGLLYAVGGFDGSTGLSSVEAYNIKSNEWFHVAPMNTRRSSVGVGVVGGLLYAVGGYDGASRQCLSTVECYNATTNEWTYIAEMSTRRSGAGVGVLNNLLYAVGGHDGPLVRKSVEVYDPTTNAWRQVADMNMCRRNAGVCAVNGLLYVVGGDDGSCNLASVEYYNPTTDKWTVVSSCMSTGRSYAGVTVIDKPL
# Sequence of Hemoglobin subunit beta (Homo sapiens), P68871 F123S (P68871 whole entry F123S): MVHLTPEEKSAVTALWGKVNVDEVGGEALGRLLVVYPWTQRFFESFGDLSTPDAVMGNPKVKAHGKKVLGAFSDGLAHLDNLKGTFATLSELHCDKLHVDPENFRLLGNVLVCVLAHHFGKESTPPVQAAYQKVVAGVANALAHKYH
# Sequence of Hemoglobin subunit beta (Homo sapiens), P68871 L115P (P68871 whole entry L115P): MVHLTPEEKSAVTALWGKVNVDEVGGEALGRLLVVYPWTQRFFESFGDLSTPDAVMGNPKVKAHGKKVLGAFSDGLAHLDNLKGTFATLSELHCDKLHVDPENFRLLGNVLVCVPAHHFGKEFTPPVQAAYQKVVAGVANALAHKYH
# Sequence of Hemoglobin subunit beta (Homo sapiens), P68871 E7V (P68871 whole entry E7V): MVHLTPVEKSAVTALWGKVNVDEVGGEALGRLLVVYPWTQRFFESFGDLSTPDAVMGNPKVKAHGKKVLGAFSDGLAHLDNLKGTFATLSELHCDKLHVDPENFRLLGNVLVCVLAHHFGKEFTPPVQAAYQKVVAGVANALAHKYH
# Sequence of Hemoglobin subunit beta (Homo sapiens), P68871 H118Y (P68871 whole entry H118Y): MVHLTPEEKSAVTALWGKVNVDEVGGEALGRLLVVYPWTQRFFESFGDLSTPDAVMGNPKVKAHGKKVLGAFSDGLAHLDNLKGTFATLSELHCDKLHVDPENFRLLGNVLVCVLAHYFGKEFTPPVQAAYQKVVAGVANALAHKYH
# Sequence of Hemoglobin subunit beta (Homo sapiens), P68871 T88P (P68871 whole entry T88P): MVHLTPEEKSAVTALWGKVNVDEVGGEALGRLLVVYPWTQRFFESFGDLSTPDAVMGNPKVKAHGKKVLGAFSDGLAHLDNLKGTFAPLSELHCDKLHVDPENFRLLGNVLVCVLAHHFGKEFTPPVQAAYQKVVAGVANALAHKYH
# Sequence of Zinc finger protein 114 (Homo sapiens), Q8NC26 A229P (Q8NC26 whole entry A229P): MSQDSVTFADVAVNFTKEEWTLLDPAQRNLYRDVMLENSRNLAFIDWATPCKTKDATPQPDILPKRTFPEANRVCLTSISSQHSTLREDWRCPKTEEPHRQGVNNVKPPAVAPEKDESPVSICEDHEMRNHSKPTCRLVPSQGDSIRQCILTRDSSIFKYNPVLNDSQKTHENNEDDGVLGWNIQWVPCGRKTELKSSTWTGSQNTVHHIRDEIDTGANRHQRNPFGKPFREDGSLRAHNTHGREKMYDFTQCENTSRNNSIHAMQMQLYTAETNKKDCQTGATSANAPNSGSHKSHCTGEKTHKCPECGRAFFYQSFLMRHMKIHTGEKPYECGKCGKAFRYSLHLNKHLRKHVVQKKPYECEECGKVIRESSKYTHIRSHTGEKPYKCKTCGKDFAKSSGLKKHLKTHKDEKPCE
# Sequence of Hemoglobin subunit beta (Homo sapiens), P68871 V114E (P68871 whole entry V114E): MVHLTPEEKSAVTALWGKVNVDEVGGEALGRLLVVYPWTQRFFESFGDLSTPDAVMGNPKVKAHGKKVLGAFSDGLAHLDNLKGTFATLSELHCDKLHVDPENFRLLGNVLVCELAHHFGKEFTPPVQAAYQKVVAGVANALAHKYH
# Sequence of Hemoglobin subunit beta (Homo sapiens), P68871 N103Y (P68871 whole entry N103Y): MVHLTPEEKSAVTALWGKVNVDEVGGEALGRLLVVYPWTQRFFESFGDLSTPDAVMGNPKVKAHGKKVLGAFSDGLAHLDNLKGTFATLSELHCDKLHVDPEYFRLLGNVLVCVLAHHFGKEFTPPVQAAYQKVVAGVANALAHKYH
# Sequence of Hemoglobin subunit beta (Homo sapiens), P68871 E102Q (P68871 whole entry E102Q): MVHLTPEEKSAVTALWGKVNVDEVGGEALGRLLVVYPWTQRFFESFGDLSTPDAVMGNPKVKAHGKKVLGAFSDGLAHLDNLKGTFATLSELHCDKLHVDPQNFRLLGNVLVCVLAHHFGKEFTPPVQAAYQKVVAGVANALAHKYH
# Sequence of Hemoglobin subunit beta (Homo sapiens), P68871 D100Y (P68871 whole entry D100Y): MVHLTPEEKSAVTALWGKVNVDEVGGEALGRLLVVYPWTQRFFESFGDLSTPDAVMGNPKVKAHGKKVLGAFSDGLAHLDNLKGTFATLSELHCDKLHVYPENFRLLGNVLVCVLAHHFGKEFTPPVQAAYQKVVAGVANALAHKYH
# Sequence of Hemoglobin subunit beta (Homo sapiens), P68871 G57D (P68871 whole entry G57D): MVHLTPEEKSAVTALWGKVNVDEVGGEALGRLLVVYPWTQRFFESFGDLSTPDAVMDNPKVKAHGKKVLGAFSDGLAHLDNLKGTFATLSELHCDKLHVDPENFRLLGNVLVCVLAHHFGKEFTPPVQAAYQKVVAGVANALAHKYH
# Sequence of Hemoglobin subunit beta (Homo sapiens), P68871 E122V (P68871 whole entry E122V): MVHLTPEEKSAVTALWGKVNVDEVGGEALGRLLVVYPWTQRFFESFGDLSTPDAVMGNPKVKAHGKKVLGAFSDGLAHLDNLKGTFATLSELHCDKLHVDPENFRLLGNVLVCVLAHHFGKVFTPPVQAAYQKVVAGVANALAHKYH
# Sequence of Hemoglobin subunit beta (Homo sapiens), P68871 S10C (P68871 whole entry S10C): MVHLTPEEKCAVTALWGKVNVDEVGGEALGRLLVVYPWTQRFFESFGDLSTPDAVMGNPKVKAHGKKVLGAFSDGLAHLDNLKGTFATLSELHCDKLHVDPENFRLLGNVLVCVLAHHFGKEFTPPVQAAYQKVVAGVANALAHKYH
# Sequence of Hemoglobin subunit beta (Homo sapiens), P68871 P101A (P68871 whole entry P101A): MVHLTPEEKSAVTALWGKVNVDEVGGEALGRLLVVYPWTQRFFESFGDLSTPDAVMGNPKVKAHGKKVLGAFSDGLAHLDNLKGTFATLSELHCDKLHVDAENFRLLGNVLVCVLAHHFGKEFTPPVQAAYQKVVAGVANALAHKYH
# Sequence of Zinc finger protein 114 (Homo sapiens), Q8NC26 E19G (Q8NC26 whole entry E19G): as the sequence (Q8NC26 whole entry A229P) above, with E19G, P229A counted along it
# Sequence of Zinc finger protein 114 (Homo sapiens), Q8NC26 K404E (Q8NC26 whole entry K404E): as the sequence (Q8NC26 whole entry A229P) above, with P229A, K404E counted along it
# Sequence of Hemoglobin subunit beta (Homo sapiens), P68871 V127G (P68871 whole entry V127G): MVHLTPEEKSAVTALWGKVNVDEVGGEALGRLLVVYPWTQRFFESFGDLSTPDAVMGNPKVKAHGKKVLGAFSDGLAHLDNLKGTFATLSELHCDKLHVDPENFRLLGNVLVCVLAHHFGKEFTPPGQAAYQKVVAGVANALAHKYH
# Sequence of Zinc finger protein 114 (Homo sapiens), Q8NC26 Q357P (Q8NC26 whole entry Q357P): as the sequence (Q8NC26 whole entry A229P) above, with P229A, Q357P counted along it
# Sequence of Hemoglobin subunit beta (Homo sapiens), P68871 E7K (P68871 whole entry E7K): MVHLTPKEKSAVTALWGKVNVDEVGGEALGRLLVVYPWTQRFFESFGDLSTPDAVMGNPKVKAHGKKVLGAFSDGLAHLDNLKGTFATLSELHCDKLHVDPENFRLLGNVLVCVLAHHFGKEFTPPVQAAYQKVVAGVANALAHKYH
row,effect of a mutation on the interaction,Substance
1,with no effect,"Zinc finger protein 114 (Homo sapiens), Q8NC26 A229P"
2,with no effect,"Zinc finger protein 114 (Homo sapiens), Q8NC26 D61V"
3,with no effect,"Zinc finger protein 114 (Homo sapiens), Q8NC26 E19G"
4,with no effect,"Zinc finger protein 114 (Homo sapiens), Q8NC26 H99N"
5,with no effect,"Zinc finger protein 114 (Homo sapiens), Q8NC26 K404E"
6,with no effect,"Zinc finger protein 114 (Homo sapiens), Q8NC26 Q357P"

# Molecular target: hbaz_human HBZ (UniProt P02008)
# Sequence (P02008 whole entry): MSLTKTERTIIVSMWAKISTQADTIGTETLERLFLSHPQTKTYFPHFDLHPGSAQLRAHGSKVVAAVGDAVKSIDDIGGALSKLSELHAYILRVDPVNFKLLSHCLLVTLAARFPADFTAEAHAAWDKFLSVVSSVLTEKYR
row,effect of a mutation on the interaction,Substance
1,disrupting interaction strength,"Hemoglobin subunit beta (Homo sapiens), P68871 D100Y"
2,disrupting interaction strength,"Hemoglobin subunit beta (Homo sapiens), P68871 E7K"
3,disrupting interaction strength,"Hemoglobin subunit beta (Homo sapiens), P68871 E7V"
4,disrupting interaction strength,"Hemoglobin subunit beta (Homo sapiens), P68871 E102Q"
5,disrupting interaction strength,"Hemoglobin subunit beta (Homo sapiens), P68871 E122V"
6,disrupting interaction strength,"Hemoglobin subunit beta (Homo sapiens), P68871 F104L"
7,disrupting interaction strength,"Hemoglobin subunit beta (Homo sapiens), P68871 F123S"
8,with no effect,"Hemoglobin subunit beta (Homo sapiens), P68871 G57D"
9,disrupting interaction strength,"Hemoglobin subunit beta (Homo sapiens), P68871 H118Y"
10,disrupting interaction strength,"Hemoglobin subunit beta (Homo sapiens), P68871 L115P"
11,with no effect,"Hemoglobin subunit beta (Homo sapiens), P68871 N103Y"
12,disrupting interaction strength,"Hemoglobin subunit beta (Homo sapiens), P68871 P101A"
13,disrupting interaction strength,"Hemoglobin subunit beta (Homo sapiens), P68871 S10C"
14,disrupting interaction strength,"Hemoglobin subunit beta (Homo sapiens), P68871 T88P"
15,disrupting interaction strength,"Hemoglobin subunit beta (Homo sapiens), P68871 V114E"
16,disrupting interaction strength,"Hemoglobin subunit beta (Homo sapiens), P68871 V127G"
